Source: PMC9098882
pKd: −log10 of the molar value.

Tests used:
[1] = target: Ozz–EloBC subcomplex (human) (UniProt Q9BR09); experiment: AUC; sedimentation velocity, 50,000 rpm, 20 °C, interference optics; 10 mM sodium phosphate, 1.8 mM potassium phosphate pH 7.2, 137 mM NaCl, 0.27 mM KCl; c(s) and two-dimensional c(s,f/f0) analysis of the same data; co-purified subcomplexes alone (Ozz–EloBC 0.35 or 1.00 mg/ml, Cul5–Rbx1 0.21 mg/ml) and their 1:1 mixture (0.75 mg/ml)
[2] = target: Ozz–EloBC subcomplex (human) (UniProt Q9BR09); experiment: AUC; sedimentation velocity, isotherm of signal-weighted-average s (3 to 7 S) of Ozz–EloBC at 1.8 to 13.3 μM; reversible monomer–dimer self-association model (dimer to monomers of the 1:1:1 complex), SEDPHAT; same buffer, 20 °C
[3] = target: CRL5^Ozz, reconstituted five-component complex (Ozz–EloBC + Cul5–Rbx1) (human) (UniProt Q9BR09); experiment: SEC; purified Ozz–EloBC and Cul5–Rbx1 mixed 1:1; Superose 6 10/300GL, 50 mM Tris pH 7.6, 150 mM NaCl, 0.3 ml/min; fractions on SDS gels stained with SYPRO Ruby
[4] = target: CRL5^Ozz, reconstituted five-component complex (Ozz–EloBC + Cul5–Rbx1) (human) (UniProt Q9BR09); experiment: co-sedimentation; 15–45% glycerol gradient ultracentrifugation with micro-fractionation; 20 mM Tris–HCl pH 7.6, 150 mM NaCl; 55,000 r.p.m., 8 h (also 12 h), 4 °C; fractions on SDS gels stained with SYPRO Ruby, densitometry
[5] = target: CRL5^Ozz, reconstituted five-component complex (Ozz–EloBC + Cul5–Rbx1) (human) (UniProt Q9BR09); experiment: AUC; sedimentation velocity, 50,000 rpm, 20 °C, interference optics; 10 mM sodium phosphate, 1.8 mM potassium phosphate pH 7.2, 137 mM NaCl, 0.27 mM KCl; c(s) and two-dimensional c(s,f/f0) analysis of the same data; co-purified subcomplexes alone (Ozz–EloBC 0.35 or 1.00 mg/ml, Cul5–Rbx1 0.21 mg/ml) and their 1:1 mixture (0.75 mg/ml)

Chain of Cul5–Rbx1 subcomplex (Q93034 whole entry): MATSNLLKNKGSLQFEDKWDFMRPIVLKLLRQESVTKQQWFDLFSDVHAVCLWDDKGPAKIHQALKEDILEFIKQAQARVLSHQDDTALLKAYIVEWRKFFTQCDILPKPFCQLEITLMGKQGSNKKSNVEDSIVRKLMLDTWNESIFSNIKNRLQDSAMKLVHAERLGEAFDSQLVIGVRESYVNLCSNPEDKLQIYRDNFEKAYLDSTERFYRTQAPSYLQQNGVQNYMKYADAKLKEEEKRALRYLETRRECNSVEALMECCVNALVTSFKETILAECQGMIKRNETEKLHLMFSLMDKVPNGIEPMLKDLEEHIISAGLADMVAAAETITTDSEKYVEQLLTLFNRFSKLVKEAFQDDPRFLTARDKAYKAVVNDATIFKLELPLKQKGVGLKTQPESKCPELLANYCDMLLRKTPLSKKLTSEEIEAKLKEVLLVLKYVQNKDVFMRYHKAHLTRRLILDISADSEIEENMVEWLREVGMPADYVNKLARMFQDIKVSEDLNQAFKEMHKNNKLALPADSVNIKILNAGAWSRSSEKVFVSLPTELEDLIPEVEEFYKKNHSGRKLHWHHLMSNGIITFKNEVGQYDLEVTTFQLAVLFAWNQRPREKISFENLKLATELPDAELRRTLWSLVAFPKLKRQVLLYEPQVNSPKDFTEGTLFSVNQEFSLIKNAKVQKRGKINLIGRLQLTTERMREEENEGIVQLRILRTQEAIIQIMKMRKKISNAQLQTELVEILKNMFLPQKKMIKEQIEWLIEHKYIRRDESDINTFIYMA
Chain of Cul5–Rbx1 subcomplex (P62877 whole entry): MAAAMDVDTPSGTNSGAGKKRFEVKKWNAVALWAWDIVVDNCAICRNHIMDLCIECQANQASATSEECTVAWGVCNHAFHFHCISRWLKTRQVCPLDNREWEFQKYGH

percent of total protein in the peak of the 1:1:1:1:1 complex, c(s) [1] [%] | percent of total protein in the peak of the 1:1:1:1:1 complex, c(s,f/f0) [1] [%] | stoichiometry N [1] | percent of total protein in the dimer peak, c(s) [1] [%] | percent of total protein in the dimer peak, c(s,f/f0) [1] [%] | pKd [2] | stoichiometry N [3] | stoichiometry N [4] | percent of total protein in the dimer peak, c(s) [5] [%] | percent of total protein in the dimer peak, c(s,f/f0) [5] [%] | stoichiometry N [5] | Substance
55 | 48 | 1 |  |  |  |  |  |  |  |  | Cul5–Rbx1 subcomplex (from UniProt Q93034 1-780; P62877 1-108)
 |  | 2 | 53 | 52 | 6.15 |  |  |  |  |  | Ozz–EloBC subcomplex (from UniProt Q9BR09 1-285; Q15370 1-118; Q15369 1-112)
 |  |  |  |  |  | 2 | 2 | 5 | 8 | 2 | CRL5^Ozz, reconstituted five-component complex (Ozz–EloBC + Cul5–Rbx1) (from UniProt Q9BR09 1-285; Q15370 1-118; Q15369 1-112; Q93034 1-780; P62877 1-108)
